This is an account of results in paper PMC9279676, “ERK2 MAP kinase regulates SUFU binding by multisite phosphorylation of GLI1” (Life Science Alliance, 2022).

First the molecules themselves.
B1: GLI1_(1-232), wild type, 35S-radiolabeled [modified: [35S]-methionine label; [35S]-methionine label] [human] / GST-SUFU (fusion of GST to full-length human SUFU) [human] (parent)
chain 1: MFNSMTPPPISSYGEPCCLRPLPSQGAPSVGTEGLSGPPFCHQANLMSGPHSYGPARETNSCTEGPLFSSPRSAVKLTKKRALSISPLSDASLDLQTVIRTSPSSLVAFINSRCTSPGGSYGHLSIGTMSPSLGFPAQMNHQKGPSPSFGVQPCGPHDSARGGMIPHPQSRGPFPTCQLKSELDMLVGKCREEPLEGDMSSPNSTGIQDPLLGMLDGREDLEREEKREPESV
chain 2: MAELRPSGAPGPTAPPAPGPTAPPAFASLFPPGLHAIYGECRRLYPDQPNPLQVTAIVKYWLGGPDPLDYVSMYRNVGSPSANIPEHWHYISFGLSDLYGDNRVHEFTGTDGPSGFGFELTFRLKRETGESAPPTWPAELMQGLARYVFQSENTFCSGDHVSWHSPLDNSESRIQHMLLTEDPQMQPVQTPFGVVTFLQIVGVCTEELHSAQQWNGQGILELLRTVPIAGGPWLITDMRRGETIFEIDPHLQERVDKGIETDGSNLSGVSAKCAWDDLSRPPEDDEDSRSICIGTQPRRLSGKDTEQIRETLRRGLEINSKPVLPPINPQRQNGLAHDRAPSRKDSLESDSSTAIIPHELIRTRQLESVHLKFNQESGALIPLCLRGRLLHGRHFTYKSITGDMAITFVSTGVEGAFATEEHPYAAHGPWLQILLTEEFVEKMLEDLEDLTSPEEFKLPKEYSWPEKKLKVSILPDVVFDSPLH

The variants in one assay derive from B1. Kind of assay: GST-SUFU pull-down binding assay with 35S-radiolabeled in vitro-translated GLI1. The conditions noted are these: 10 nM GST-SUFU, parent: 55, read off a plot.
As for chain 1 S130E, the response is 33 % GLI1 Bound.

Still in this assay, the particulars now being: 20 nM GST-SUFU, parent: 67, read off a plot.
As for chain 1 S130E, the response was 52 % GLI1 Bound.

The assay is the same for the next values; noted with them: 40 nM GST-SUFU, parent: 80, read off a plot.
On to chain 1 S130E, for which the response was found to be 61 % GLI1 Bound.

The assay is the same for the next values; noted with them: 80 nM GST-SUFU, parent: 95, read off a plot.
Turning to chain 1 S130E, the response was 72 % GLI1 Bound.
